From IntAct's records for PubMed 19680263

B1: Complement factor H (Homo sapiens), P08603 (parent)
chain: MRLLAKIICLMLWAICVAEDCNELPPRRNTEILTGSWSDQTYPEGTQAIYKCRPGYRSLGNVIMVCRKGEWVALNPLRKCQKRPCGHPGDTPFGTFTLTGGNVFEYGVKAVYTCNEGYQLLGEINYRECDTDGWTNDIPICEVVKCLPVTAPENGKIVSSAMEPDREYHFGQAVRFVCNSGYKIEGDEEMHCSDDGFWSKEKPKCVEISCKSPDVINGSPISQKIIYKENERFQYKCNMGYEYSERGDAVCTESGWRPLPSCEEKSCDNPYIPNGDYSPLRIKHRTGDEITYQCRNGFYPATRGNTAKCTSTGWIPAPRCTLKPCDYPDIKHGGLYHENMRRPYFPVAVGKYYSYYCDEHFETPSGSYWDHIHCTQDGWSPAVPCLRKCYFPYLENGYNQNYGRKFVQGKSIDVACHPGYALPKAQTTVTCMENGWSPTPRCIRVKTCSKSSIDIENGFISESQYTYALKEKAKYQCKLGYVTADGETSGSITCGKDGWSAQPTCIKSCDIPVFMNARTKNDFTWFKLNDTLDYECHDGYESNTGSTTGSIVCGYNGWSDLPICYERECELPKIDVHLVPDRKKDQYKVGEVLKFSCKPGFTIVGPNSVQCYHFGLSPDLPICKEQVQSCGPPPELLNGNVKEKTKEEYGHSEVVEYYCNPRFLMKGPNKIQCVDGEWTTLPVCIVEESTCGDIPELEHGWAQLSSPPYYYGDSVEFNCSESFTMIGHRSITCIHGVWTQLPQCVAIDKLKKCKSSNLIILEEHLKNKKEFDHNSNIRYRCRGKEGWIHTVCINGRWDPEVNCSMAQIQLCPPPPQIPNSHNMTTTLNYRDGEKVSVLCQENYLIQEGEEITCKDGRWQSIPLCVEKIPCSQPPQIEHGTINSSRSSQESYAHGTKLSYTCEGGFRISEENETTCYMGKWSSPPQCEGLPCKSPPEISHGVVAHMSDSYQYGEEVTYKCFEGFGIDGPAIAKCLGEKWSHPPSCIKTDCLSLPSFENAIPMGEKKDVYKAGEQVTYTCATYYKMDGASNVTCINSRWTGRPTCRDTSCVNPPTVQNAYIVSRQMSKYPSGERVRYQCRSPYEMFGDEEVMCLNGNWTEPPQCKDSTGKCGPPPPIDNGDITSFPLSVYAPASSVEYQCQNLYQLEGNKRITCRNGQWSEPPKCLHPCVISREIMENYNIALRWTAKQKLYSRTGESVEFVCKRGYRLSSRSHTLRTTCWDGKLEYPTCAKR
partner: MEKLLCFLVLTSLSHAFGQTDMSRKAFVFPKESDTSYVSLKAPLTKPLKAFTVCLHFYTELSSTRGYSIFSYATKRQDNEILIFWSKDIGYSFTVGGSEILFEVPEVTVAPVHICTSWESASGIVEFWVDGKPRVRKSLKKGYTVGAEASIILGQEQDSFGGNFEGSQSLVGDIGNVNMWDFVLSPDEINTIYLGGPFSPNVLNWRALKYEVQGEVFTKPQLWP

Variants of: B1
Conditions: with crp_human CRP

effect of a mutation on the interaction	Variant
decreasing interaction strength	R1215G
decreasing interaction strength	R1210C
decreasing interaction strength	V1197A
decreasing interaction strength	W1183L

Variants of: B1
Conditions: with crp_human CRP
Remark: another data set of the same source

effect of a mutation on the interaction	Variant
disrupting interaction strength	R1203E;R1206E;R1210S;K1230S;R1231A

Variants of: B1
Conditions: with crp_human CRP
Remark: another data set of the same source

effect of a mutation on the interaction	Variant
disrupting interaction strength	R1203E;R1206E;R1210S;K1230S;R1231A
